In patent US11033620B2, “Combination therapies targeting tumor-associated stroma or tumor cells and microtubules” (BIOMED VALLEY DISCOVERIES, INC., priority 2014, dated 2021):

Tested on: H460 cells
Assay: Efficacy of M830 in the H460 non-small cell lung carcinoma xenograft model
Type: in vivo, mouse
Settings: combination partner Paclitaxel
Experimental: Animals were monitored for regression responses.
The statistical tests were not adjusted for multiple comparisons.
Cultured H460 cells were harvested during exponential growth and resuspended in phosphate buffered saline at a concentration of 1×10^8 cells/mL. 1.0×10^7 tumor cells were injected subcutaneously into the flank of athymic nude mice. Animals were euthanized when tumors reached the pre-determined volume endpoint of 2000 mm^3 or on the final day (Day 88), whichever came first.

B1: M830: TEM8 monoclonal antibody (hIgG1), VH SEQ ID NO:5, VL SEQ ID NO:6 (antibody, V domains shown)
VH: EVQLVESGGGVVQPGRSVRLSCAASGFTFSTYTMHWVRQAPGKGLEWVAIISNDGSNKYYADPVRGRFTISRDNSKNTLYLQMNSLRAEDTAVYYCVRGSSWYRGNWFDPWGQGTLVTVSS
VL: DIQMTQSPSSLSASVGDRVTIACRASQTISRYLNWYQQKPGKAPKLLIYAASSLQSGVSSRFSGSGSGTEFTLTISSLQPEDFATYFCQQTYSPPITFGQGTRLEIKR
modifications: TEM830 mAb VH; TEM830 mAb VL
With B1 the “regression (in % Tumor Reduction vs. Vehicle at Day 21 cell)” value was −61%.
